This is an account of results in the DeepSol protein solubility set.

A short description of the data set: soluble on expression in E. coli; label from the status in PepcDB or PDB records.
Turning to “MKIRVVSSKEEIDTLKLNEEIVHLAFRPSNKDIFKLILKCPEVKAIHIPSSYKRTISSSAQMYLSMQNIALLEGDVWGHRKDINEYSEVSEHVFDRIKELKEEGLSDEDTIEKLVRETRLSPDFVTFIISN”, the “soluble on expression in E. coli” value was “not soluble”.
Consider “MRYIRLCIISLLATLPLAVHASPQPLEQIKLSESQLSGRVGMIEMDLASGRTLTAWRADERFPMMSTFKVVLCGAVLARVDAGDEQLERKIHYRQQDLVDYSPVSEKHLADGMTVGELCAAAITMSDNSAANLLLATVGGPAGLTAFLRQIGDNVTRLDRWETELNEALPGDARDTTTPASMAATLRKLLTSQRLSARSQRQLLQWMVDDRVAGPLIRSVLPAGWFIADKTGAGERGARGIVALLGPNNKAERIVVIYLRDTPASMAERNQQIAGIGAALIEHWQR”, for which the “soluble on expression in E. coli” value is “soluble”.
In the case of “MKAVVFDFDGTMLDTENLWYTETMKYLKDTYNIDLPDEIYQQIIGTSEEPIISYMMEATNGAFDKEAFLTTVAEACHLGQQSLGFRNGFKEFFEQVKANGYKIGLATSSGFDWIEPTLDRLGILADFETIQTADHVEEIKPHPALYLQAVEALGVKPEEAIAIEDSKNGALSALQAGLKVYIVPNEATKNITFPKEATVVSSFAEIKLK” it was “not soluble”; in that of “MSFKDYEYKRPNIEELKEKFTVALEKFDNAKTVEEQKQVIHSINEIRNDFGTMGNLCYIRHSVDTTDAFYKEEQDFFDEFSPVVQGYGTKYYNALIHSPFREELEAYYGKQLFALAECDLKTYSDEVVKDLQLENKLSSQYTQLLASAKIDFAGEERTLSQLIPFMQGKERSERKAASEAYYGFLAENEEELDRIYDELVKVRTKIAKSLGFKNFVELGYARMYRTDYNAEMVANYRQQVLDYIVPVTTELRKRQQARIGVEKLAYYDENFEFPTGNPTPKGDADWIVNHGKTMYKELSAETDEFFNFMLDNDLLDLVAKKGKAGGGYCTYIENYKAPFIFSNFNGTSGDIDVLTHEAGHAFQVYESRKFEIPEYNWPTYEACEIHSMSMEFFTWPWMKLFFEEDADKYYFSHLSSALLFLPYGVSVDEYQHYVYENPEASPEERKTAWRNIEKKYLPHRDYEDNDYLERGGFWQRQGHIYSSPFYYIDYTLAQICALQFWKRARDNRQEAWEDYVNLCQQGGSKSFLELVEVANLTSPFAEGCVKSVITEIEAWLHAIDDTKL”, “not soluble”.
The entry for “SLPAPTQLFFPLIRNCELSRIYGTACYCHHKHLCCSSSYIPQSRLRYTPHPAYATFCRPKENWWQYTQGRRYASTPQKFYLTPPQVNSILKANEYSFKVPEFDGKNVSSILGFDSNQLPANAPIEDRRSAATCLQTRGMLLGVFDGHAGCACSQAVSERLFYYIAVSLLPHETLLEIENAVESGRALLPILQWHKHPNDYFSKEASKLYFNSLRTYWQELIDLNTGESTDIDVKEALINAFKRLDNDISLEAQVGDPNSFLNYLVLRVAFSGATACVAHVDGVDLHVANTGDSRAMLGVQEEDGSWSAVTLSNDHNAQNERELERLKLEHPKSEAKSVVKQDRLLGLLMPFRAFGDVKFKWSIDLQKRVIESGPDQLNDNEYTKFIPPNYHTPPYLTAEPEVTYHRLRPQDKFLVLATDGLWETMHRQDVVRIVGEYLTGMHHQQPIAVGGYKVTLGQMHGLLTERRTKMSSVFEDQNAATHLIRHAVGNNEFGTVDHERLSKMLSLPEELARMYRDDITIIVVQFNSHVVGAYQNQE” is “not soluble”.
In the case of “MSEAQGQGKQSLVEMLKAMVQARASDIHLQAGAPPTVRIDGKLRPFGNRPLTPKEVEAIARALLTPEQLEELEYRKEMDFAYTIPGVARFRCNLLRQRGSFGLVMRVVSEVIPSFEALGLPREVMESLAAKERGLILVTGPTGSGKSTTLAALIDHINLHYAKNIITIEDPIEFLHKHKKSLVVQREVGLDTDSFYTGLKYALRQDPDVIMVGEMRDRETVEAALMAAQTGHLVLSTLHTLDAWRTINRIIDFFPLHEHRQVRVLLAESLLGILSQRLLPKADGQGRVLALEILIATPYVRELLKDEEKMPQIKEAMMEGSLYGMRTFDQHLVELYTEGLISLEDALSAATSPHEFRLLLTKATGQTY” it was “soluble”; in that of “MTTTPANVLASVDLGSNSFRLQICENNNGQLKVIDSFKQMVRFAAGLDEQKNLSAASQEQALDCLAKFGERLRGFRPEQVRAVATNTFRVAKNIADFLPKAEAALGFPIEIIAGREEARLIYTGVIHTLPPGGGKMLVIDIGGGSTEFVIGSTLNPDITESLPLGCVTYSLRFFQNKITAKDFQSAISAARNEIQRISKNMRREGWDFAVGTSGSAKSIRDVLAAEMPQEADITYKGMRALAERIIEAGSVKKAKFENLKPERIEVFAGGLAVMMAAFEEMKLDRMTVTEAALRDGVFYDLIGRGLNEDMRGQTVAEFQHRYHVSLNQAKRTAETAQTFMDSLCHAKNVTVQELALWQQYLGRAAALHEIGLDIAHTGYHKHSAYILENADMPGFSRKEQTILAQLVIGHRGDMKKMSGIIGTNEMLWYAVLSLRLAALFCRSRQDLSFPKNMQLRTDTESCGFILRIDREWLERHPLIADALEYESVQWQKINMPFKVEAV”, “not soluble”; in that of “MGLNIGDLLGSTPAKDQGCSRTCESQFCTIAPLLRYGKYCGILYSGCPGERPCDALDACCMVHDHCVDTHNDDYLNTMCNENLLSCIDRVSGATFPGNKCNVGQTASVIRGVIETAVFAGKILHKRDDGQ”, “soluble”.
Regarding “MGSDKIHHHHHHMSVMFDPDTAIYPFPPKPTPLSIDEKAYYREKIKRLLKERNAVMVAHYYTDPEIQQLAEETGGCISDSLEMARFGAKHPASTLLVAGVRFMGETAKILSPEKTILMPTLQAECSLDLGCPVEEFNAFCDAHPDRTVVVYANTSAAVKARADWVVTSSIAVELIDHLDSLGEKIIWAPDKHLGRYVQKQTGGDILCWQGACIVHDEFKTQALTRLQEEYPDAAILVHPESPQAIVDMADAVGSTSQLIAAAKTLPHQRLIVATDRGIFYKMQQAVPDKELLEAPTAGEGATCRSCAHCPWMAMNGLQAIAEALEQEGSNHEVHVDERLRERALVPLNRMLDFAATLRG”, the “soluble on expression in E. coli” value is on record as “not soluble”.
Consider “MSLEDTLQAPTPLQIERWLRKQFYSVDRNREDRISAKDLKNMLSQVNYRVPNMRFLRERLTDLEQRSGDITYGQFAQLYRSLMYSAQKTMDLPFLEASTLRAGERPELCRVSLPEFQQFLLDYQGELWAVDRLQVQEFMLSFLRDPLREIEEPYFFLDEFVTFLFSKENSVWNSQLDAVCPDTMNNPLSHYWISSSHNTYLTGDQFSSESSLEAYARCLRMGCRCIELDCWDGPDGMPVIYHGHTLTTKIKFSDVLHTIKEHAFVASEYPVILSIEDHCSIAQQRNMAQYFKKVLGDTLLTKPVEISADGLPSPNQLKRKILIKHKKLAEGSAYDENSPLGDLLRGVLDVPACQIAIRPEGKNNRLFVFSISMASVAHWSLDVAADSQEELQDEGHHHHHH”, for which the “soluble on expression in E. coli” value is reported as “not soluble”.
The entry for “MGSDKIHHHHHHADNPVVQTLYTTDPAPMVYNGTCYLYTGHDEDGSTWYTMKDWRCYSSTDMVNWTDNGSPLAYNTFSWAKGDAWAGQCIPRNGKFYYYVPVTQKSGGMAIGVAVSNSPTGPFVDALGHPLAYTGTGDIDPTVFIDNDGQAYLYWGNPNLYYVKLNQDMISYSGKIVQVPLTTAGFGVRKGNSSRPTLYEEGPWFYKRNGMYYMVYAAGGIPEYISYSTSKSPTGPWYYKGVIMPSQGRSFTNHPGVIDFKGNSYFFYHNGALPGGSGFTRSVCIEQFKYNADGTFPTINMTTTGVSGIGNLNPYTQNEAETICWESNVKTEKCSEGGMDVCNIQNNSWIKVKGVNFDSGAASFNARVASATNGGNIELHLDSPSGTLIGTCHVNSTGGWQSWVTNSCNVSGAKGIHDLYLKFTGGNGYLFNVNWWKFNGTKTVSTR” is “not soluble”; for “MGSDKIHHHHHHMSDFFIETTKADKVLPTNSRPKFFAFGIPSYTNLGDQAVSLAQRKYIENEFPEYQYIEILEDDNDEGIEAVKKIITSQDIVSFVGGGNMGSLYTNHEAARRKVFSTFVNNLTISFPQSIHFEDTPSGLKEQKLSQEAYGKNRHLFLIARDAQSYHRMQTTFDNQVLFTPDMVLYFKASHYDFKRSGALFVLRHDGEKVVGDSLIDSMKKMLDNNRPLKRTDTVLDTVKRITPINREKLFKEELELFAHQEIVITDRWHAMVFSVLTGTPCLLFGNSYGKGKHAYFDWLEHINWIAYTDEEDLDRIDQQIQRLIKTKEHAYDIRPDFKQLHDLIKLHSKK” it is “not soluble”.
In the case of “MEGCVSNIMICNLAYSGKLDELKERILADKSLATRTDQDSRTALHWACSAGHTEIVEFLLQLGVPVNDKDDAGWSPLHIAASAGRDEIVKALLVKGAHVNAVNQNGCTPLHYAASKNRHEIAVMLLEGGANPDAKDHYDATAMHRAAAKGNLKMVHILLFYKASTNIQDTEGNTPLHLACDEERVEEAKFLVTQGASIYIENKEEKTPLQVAKGGLGLILKRLAEGEEASM” it was “soluble”; in that of “MGSDKIHHHHHHMVAIDLPYDKRTITAQIDDENYAGKLVSQAATYHNKLSEQETVEKSLDNPIGSDKLEELARGKHNIVIISSDHTRPVPSHIITPILLRRLRSVAPDARIRILVATGFHRPSTHEELVNKYGEDIVNNEEIVMHVSTDDSSMVKIGQLPSGGDCIINKVAAEADLLISEGFIESHFFAGFSGGRKSVLPGIASYKTIMANHSGEFINSPKARTGNLMHNSIHKDMVYAARTAKLAFIINVVLDEDKKIIGSFAGDMEAAHKVGCDFVKELSSVPAIDCDIAISTNGGYPLDQNIYQAVKGMTAAEATNKEGGTIIMVAGARDGHGGEGFYHNLADVDDPKEFLDQAINTPRLKTIPDQWTAQIFARILVHHHVIFVSDLVDPDLITNMHMELAKTLDEAMEKAYAREGQAAKVTVIPDGLGVIVK”, “not soluble”.
In the case of “MEEKFDVVIIGAGPAGLFAAYELVEKSNLKVLIIEEGGDVDQRVCPMYELGYCIGCKPCHIMSGVGGAGGLSDGTVNLRPDIGGDLTELTNDENYSWQLVWEVDQILLRHEAPRNLYKGDPEQIKYWERKAAQAGVKFIPIIQRHIGSDNTPKVIKSIKNYLEKKGVKFLLWTKALEFNKGWVKVRRGKDTFTINARYIIVAPGRGGADWFHEVAKKIGLKARHGPIDVGVRVEVPAIVMEPITSINHDPKFHIYTDTYDDFVRTFCTNPYGFVVEERYDNYVGVNGHSMREKKSNNTNFALLTRIELTEPVEDTTAYGKSIAQLATTIGGGKPIIQRLGDLRRGRRSTWSRIRKSDVEPTLKHVTPGDIAMALPHRVVTNIIEGLERLDKVIPGVASDHTLLYAPEIKYYAMRVEVNELLETNIENVFAAGDGAGLSRDIVNAAATGIMAARGILVKEGLYNLKDFKKPGNWKEKIENLEPEYLEHHHHHH” it was “not soluble”; in that of “VGAPLAVELDRSSPVPLYFQLAQTIENAIIGGELAPGDRFENELALAKRLNLSRPTTRRAIQELVDKGLLVRKRGVGTQVVQSAVHRPVELTSLFDDLARAGQSPTTKLLDYQVSVPAEDVAAELNLQPGAEVASIRRLRSTNGEPLALMTNHIPVDLAPDPEELEAHGLYHALRARGVHIRLARQRIGAKAASKAEASLLDEKTGAPLLTMNRTAFDDSGSAVEFGSHCYRASRYYFDTTVVDR”, “not soluble”.
For “MAHHHHHHMVIFFGRAQTRRVTGKVVVFGATTNVGKHLSLLLTLSPQVKELCCFDPLNDVTLRMTETRVRGIVKDLSHIDTGVVLRAVDDPQQWEPAMRNAQLVLICTGSIPNPSRLQRDLALAECAPEYLVAMELVARAAPHAIVGIASGPVNSLVPLAREVLLRHSAFDPRKLFGITSRDVMRTRVLFAKELHMNPYDVNVHVVGGKGDATVCPLITQTGFQLPHQRMVQLCEEVQRPENFTAGDHNSTGCRVDSQNVQGQEKFTCPTLSTANAAYEWVTSIMKAQRGDRGITECSFVESSIKRETPFFSSRVELGEEGAAQLLPLGALTPYEEELVAAAVPLIVEDVEAGLRLSKTGVDAVS”, the “soluble on expression in E. coli” value is “not soluble”.
